This is an account of results in patent US20090005659A1, “Tissue Ablation by Shear Force for Sampling Biological Fluids and Delivering Active Agents” (priority 2000, published 2009).

Data set [1] has as its system intact skin of human and swine. Put plainly: Penetration of insulin into intact skin (own experiment, result not shown). The settings on record: no shear perforation. In kind it is in vivo. An excerpt: The stratum corneum is recognized as the primary barrier to percutaneous absorption of drug applied to the skin surface. The densely structured outmost skin layer consisting of flattened and keratinized dead skin cells provides a formidable permeation barrier to most small and virtually all large compounds. […] Our own experiment confirmed this (result not shown). This example investigates in vivo transdermal delivery of insulin into swine following application of shear perforation to remove the stratum corneum barrier at the test site.

Data set [2] concerns pigs. Put plainly: Swine glucose monitoring study: subcutaneous fast-acting insulin, blood glucose. As to conditions: 2 IU subcutaneous, four pigs. It counts as in vivo, pig. The method, then:
A swine study was conducted for glucose measurements in both capillary blood and ISF extracted from the micropores generated by the shear perforation procedure as described in Example 3. Briefly, subcutaneous injections of fast-acting insulin (2 IU, Regular Iletin® II, U-100, Pork, Eli Lilly, Indianapolis, Ind.) were administered to four pigs. […] Glucose changes in the blood were monitored periodically using One Touch® Basic glucose meter (LifeScan, Inc., Milpitas, Calif.) on blood samples from the ear vein. ISF samples were obtained by application of a weak suction to the micropores on the skin with an Asoivenin® suction device (ASPIR, Sannois, France). The ISF samples collected throughout the whole experiment were tested for glucose using both a FastTake® and One Touch® Basic glucose meter blood glucose meters (LifeScan, Inc., Milpitas, Calif.) as wells as an YSI glucose analyzer (Model 2700 Select Biochemistry Analyzer, YSI Inc., Yellow Springs, Ohio). A calibration procedure was conducted for the two home-use glucose meters (i.e., the One Touch® and FastTake® meters) against the YSI glucose analyzer using aqueous glucose solutions of various concentrations.

Data set [3] has as its system female Yorkshire pigs. Put plainly: Transdermal delivery of insulin by passive diffusion following shear perforation of the skin. It counts as in vivo, pig. How it is done:
Two female Yorkshire pigs of the same body weight range as those in Example 2 were immobilized with anesthetics. The test site on the side of the chest was prepared by clipping lightly off the hair and cleaning with an alcohol wipe. Special care was taken not to damage the skin. Shear perforation of the pig skin was performed with a Remington shaver (Remington Microscreen 1®, Remington, Bridgeport, Conn., USA) by pressing its screen firmly on the skin for about 1 second. This procedure was repeated at an adjacent skin site until 10 cm^2 of the skin was shear-perforated. Only slight erythema was observed on the test site. A drug reservoir patch made of silicone rubber (Silastic® Sheet, Medical Grade, Dow Corning Corp., Midland, Mich., USA) was affixed to the test skin with silicone adhesive (Secure® Adhesive, BT-401, Factor II, Inc., Lakeside, Ariz., USA). […] The thickness of the drug reservoir was 0.5 mm. An insulin solution (0.5 ml, Regular Iletin® II, Insulin Injection, USP, Purified Pork, Eli Lilly and Company, Indianapolis, Ind., USA) was placed into the drug reservoir which covered the shear-perforated skin to allow insulin molecules to enter the pig body through the pores on the stratum corneum driven by insulin concentration gradient. Transdermal insulin delivery was conducted in this way for 50 minutes. Insulin delivery was then terminated by removing the insulin patch. Blood samples were taken from the pigs prior to, during, and after transdermal insulin delivery for determination of blood glucose and insulin concentrations.

Data set [4] relates to female Yorkshire pigs. In words: Subcutaneous injection of insulin (control experiment): blood glucose and plasma insulin profiles. In kind it is in vivo, pig. The settings on record: four pigs. From the text:
The subcutaneous administration of insulin provides a dose response to which a comparative measure of transdermally delivered insulin can be made. An insulin dose of 5 IU insulin (Regular Iletin® II, Insulin Injection, USP, Purified Pork, Eli Lilly and Company, Indianapolis, Ind., USA) was subcutaneously injected in the rear mid-ventral area of each of four female Yorkshire pigs (weight: 22-26 kg) with a 1 cc Sub-Q Precision Glide® Needle (Becton-Dickinson and Company, Franklin Lakes, N.J., USA).
As the insulin concentrations went back to its basal concentration (FIG. 5b), the blood glucose concentrations also were gradually returned toward its pre-insulin injection level (FIG. 5a).

Where “and” joins values, the source holds several entries; their conditions need not be identical. Identical values can stand only once.

For the substance insulin, the “penetration into intact skin” value in data set [1] was “cannot penetrate into the intact skin”. Also, the blood glucose concentration entry in data set [2] was “significant reduction in the blood glucose concentration”; in data set [4] (5 IU insulin subcutaneous, FIG. 5a) it was “rapid reduction in blood glucose concentration”. In addition, the blood glucose result in data set [3] (0.5 ml insulin solution patch over 10 cm^2 shear-perforated skin, 50 minutes, two pigs, FIG. 6a) is “Drastic reduction in the blood glucose”. In addition, the “time for blood glucose concentrations to return to a near normal level” value in data set [3] (transdermal insulin over shear-perforated skin, 50 minutes delivery, two pigs) is recorded as “about 5 hours”. Also, in data set [3] (transdermal, shear-perforated skin 10 cm^2, one value per pig, FIG. 6b), the “peak plasma insulin concentrations” value was 50 μIU/ml and 90 μIU/ml. For the same substance, the “time of peak plasma insulin concentration” value in data set [3] (transdermal, shear-perforated skin, peak at the end of delivery) stood at 50 min. The peak insulin concentrations in data set [4] (5 IU insulin subcutaneous injection, plasma, FIG. 5b) is reported as 31-55 μIU/ml.
